According to US20260193363A1 (US Dept. of Health and Human Services, published 2026):
Substitutions are numbered along the chain they refer to.

B1: 40H3 MMAE antibody drug conjugate (antibody, V domains shown)
VH: QVQLKQSGPGLVQPSQSLSITCTVSGFSLTNYGIHWLRQSPGKGLEWLGMMWRGGGTDYNAAFISRLTITKDTSKSQVFFRMNNLQTNDTAIYYCARKGVGMGLGYWGQGTSVTVSS
VL: DIQMTQSPASQSASLGESVTITCLASQTIGTWVAWYQQKPGRSPQLLIYGATNLADGVPSRFSGSGSGTKFSFKISSLQAEDFVSYYCQQLYSNPYTFGGGTKLEIK
B2: 40H3 DM1 antibody drug conjugate (antibody, V domains shown)
VH: B1 VH
VL: B1 VL
B3: monoclonal antibody 40H3 (antibody, V domains shown)
VH: B1 VH
VL: B1 VL
notes: also called ma40H3 GS; 40H3 (full length antibody)
B4: monoclonal antibody 11E11 (antibody, V domains shown)
VH: QVQLKQSGPSLVQPSQSLSITCTVSGFSLTNYGVHWIRQSPGKGLEWLGVKWRGGRTDYNAAFMSRLSITRDNSRSQVFFKMNSLQTDDTAIYYCAKNGPFGNFAGYWGQGTLVTVSA
VL: DIVMSQSPSSLAVSVGEKVSLTCKSSQSLLDNQKHYLAWYQQKPGQSPKLLIYWASTRESGVPDRFTGSGSGTEFTLTISSVKAEDLAVYYCQQFYNYPYTFGGGTKLEIK
B5: monoclonal antibody 11G3 (antibody, V domains shown)
VH: B4 VH with I37V, K51M, R71K, T90A, A118T
VL: B4 VL with A12P, Q27R
B6: monoclonal antibody 3D10 (antibody, V domains shown)
VH: QVQLKQSGPGLVQPSQSLSIICTVSGFSLTRNGVHWVRQSPGKGLEWVGVIWRSGRTDYDAAFMSRLSITKDNSKSQVFFKMNSLQADDTAIYYCVKNGDDGNYGTYWGQGTLVTVSA
VL: DIVMSQSPSSLGVSVGEKVTMSCKSSQSLLDSRNQKNYLAWYQQKPGQSPKLLIYWASTRESGVPDRFTGSGSGTEFTLTISSVKAEDLAIYYCQQYYNYPYTFGGGTKLEIT
B7: monoclonal antibody 9G11 (antibody, V domains shown)
VH: B6 VH with I21T, S54G
VL: B6 VL
B8: monoclonal antibody 1D9 (antibody, V domains shown)
VH: B4 VH with P9R, N31D, K51I, G54S, A62V, R71K, R75K, S84G, L113P, T115A
VL: DIVMSQSPSSLAVSVGEKVTMRCRSSQSLLDSYHQKNYLAWYLQKPGQSPKLLIYWASTRESGVPDRFTGSGSGTDFTLTISSVKAEDLAVYYCQEYYRYPYTFGGGTKLEIK
B9: monoclonal antibody 4A4 (antibody, V domains shown)
VH: QVQLKQSGRSLVQPSQSLSITCTVSGFSLTDYGVHWIRQSPGKGLEWLGVIWRSGRTDYNAVFMSRLSITKDNSKSQVFFKMNGLLIEDTAIYYCAKNGPFGNFAGYWGQGTPVAVSA
VL: B8 VL with V91A

Columns and labels:
[1] = target: EGFRvIII on DKMG-EGFRvIII cells (human glioblastoma line DKMG transduced with EGFRvIII); assay: cell-based or functional assay
[2] = target: T1, EGFR overexpressed on cancer cell lines MDA-MB-468 and A431 (human, UniProt P00533 25-1210); assay: flow cytometry, antibodies added at 2 µg/ml, MDA-MB-468 cells
T1 construct: whole, on cells; also called overexpressed EGFR; cancer-expressed EGFR

[3] = target: T2, EGFRvIII extracellular domain, His-tagged (human); assay: BLI (Octet Red96), His-tagged antigen on Ni-NTA biosensors, antibody in solution, 30 C
T2 construct: extracellular domain; also called EGFRvIII-His; EGFRvIII-HIS

[4] = target: T3, EGFRvIII on F98npEGFRvIII cells (rat glioma F98 transfected with nonphosphorylated EGFRvIII); assay: flow cytometry, antibodies added at 2 µg/ml, F98-npEGFRvIII cells
T3 construct: whole, on cells; also called F98-EGFRvIII

[5] = target: T1, EGFR overexpressed on cancer cell lines …; assay: flow cytometry, antibodies added at 2 µg/ml, A431 cells
[6] = target: T4, wild-type EGFR extracellular domain, His-tagged (human, UniProt P00533 25-645); assay: ELISA, purified antibody on His-tagged ECD, OD450
T4 construct: extracellular domain; also called wtEGFR-His; EGFRwt ECD

[7] = target: T5, wild-type EGFR on F98EGFR cells (rat glioma F98 transfected with full-length EGFR) (UniProt P00533 25-1210, limits assumed); assay: flow cytometry, antibodies added at 2 µg/ml, F98-EGFR cells
T5 construct: whole, on cells; also called wtEGFR on transfected F98 cells

[8] = target: T6, wtEGFR at physiological levels on WI-38 cells (human, UniProt P00533 25-1210); assay: flow cytometry, antibodies added at 2 µg/ml, WI-38 cells
T6 construct: whole, on cells; also called normal cells

[9] = target: T4, wild-type EGFR extracellular domain, …; assay: ELISA, hybridoma supernatant on His-tagged ECD on nickel-coated 96-well plate, OD450

| Binder | IC50 (nM), cell viability, DKMG EGFRvIII cells [1] [nM] | Median : PE-A [2] | Kd [3] [nM] | koff [3] [s⁻¹] | kon [3] [M⁻¹ s⁻¹] | Median : PE-A [4] | Median : PE-A [5] | binding result [6] | Median : PE-A [7] | Median : PE-A [8] | binding result [9] |
| --- | --- | --- | --- | --- | --- | --- | --- | --- | --- | --- | --- |
| B1 | 1.9 | – | – | – | – | – | – | – | – | – | – |
| B2 | 0.56 | – | – | – | – | – | – | – | – | – | – |
| B3 | – | 2140 | 0.27 | 4.51e-05 | 167000 | 1120 | 3160 | – | – | – | – |
| B4 | – | 216 | – | – | – | 1440 | 274 | no binding (tested: 5 ng/ml) | – | – | – |
| B5 | – | 90.3 | – | – | – | – | 90.3 | no binding (tested: 5 ng/ml) | 37.9 | 39.6 | – |
| B6 | – | 205 | – | – | – | 1420 | 196 | – | – | – | no binding |
| B7 | – | 166 | – | – | – | 1010 | 160 | no binding (tested: 5 ng/ml) | – | – | – |
| B8 | – | 166 | – | – | – | 1230 | 136 | – | 45.5 | 41.4 | no binding |
| B9 | – | 130 | – | – | – | 1110 | 83.3 | no binding (tested: 5 ng/ml) | 41.7 | 48 | – |
